Laboratory results taken from the RNAGym collection of RNA variant scans (doi:10.7554/elife.90254).

B1: LINE1-full (parent)
chain: UACGUAGGUGGUUUUCCCCUGAUAGUGCUAAGGGGGCCUGGAAGUUUGGACUGGGCAGAGCUCAACACAGCGUGGCAAAGUGGCUGUGGCUAGACUGCCUCUCUGGAUUCCUCGUCACUCAGCAGGGCAUCUCUGAGAGAAAUGCC

Variants of: B1
Experiment: self-cleavage, relative activity (ratio to wild type); higher = more cleavage; in vitro, sequencing; the parent is a self-cleaving ribozyme

Row | Variant | self-cleavage
1 | U45G A50G | 0.89
2 | U46A U91A | 0.62
3 | U46G A65G | 0.05
4 | U46A C146A | 1.53
5 | U46A U81C | 1.15
6 | U46A U62A | 0.04
7 | U46A A59G | 0.07
8 | U46C U52C | 1.26
9 | U46A U85A | 0.06
10 | U46A U85C | 0.08
11 | U46C C71G | 0.96
12 | U46C C71U | 1.11
13 | U45G U112C | 1.38
14 | U46A A64U | 0.46
15 | U46A A64G | 0.18
16 | U46G U62C | 0
17 | U45G U132A | 0.86
18 | U46A U115A | 1.26
19 | U46A U115C | 1.72
20 | U46G U73C | 1.02
21 | U46G U102C | 1.19
22 | U46C A124U | 1.25
23 | U46C A124G | 1.54
24 | U46C U81A | 2.18

Row | Variant | self-cleavage
25 | U46C U81G | 0.54
26 | U45G A140G | 1.33
27 | U46A G89C | 0.03
28 | U46C U115C | 1.66
29 | U46A A138G | 1.66
30 | U46G G53U | 1.73
31 | U46C G58U | 0.05
32 | U45G U96A | 0.03
33 | U45G A142G | 2.33
34 | U46C G122A | 1.6
35 | U46A U143A | 1.38
36 | U46C G48A | 1.04
37 | U46A G114C | 1.56
38 | U46C A77G | 2.46
39 | U46C A77U | 1.51
40 | U46A A142U | 1.19
41 | U46A U104C | 1.96
42 | U46A A107C | 1.99
43 | U45G G55C | 0.08
44 | U46A C145U | 1.52
45 | U46C G80A | 2.95
46 | U46A A121G | 1.15
47 | U46C U100A | 1.22
48 | U46C G139A | 1.23

Row | Variant | self-cleavage
49 | U46A U87A | 0.03
50 | U46A G125A | 2
51 | U46C A121C | 1.9
52 | U46C A121G | 1.64
53 | U46C G72U | 1.35
54 | U46C G72A | 0.92
55 | U45G U108C | 1.91
56 | U46C A79G | 1.29
57 | U46C A79U | 1.83
58 | U46C U109A | 1.41
59 | U46A A117G | 1.78
60 | U46A A117U | 1.46
61 | U46C A65G | 0.06
62 | U46C A65U | 0.24
63 | U46G A107G | 1.15
64 | U46C U73C | 2.17
65 | U46C U73A | 1.68
66 | U46C U91C | 0.99
67 | U46C U91G | 0.09
68 | U46C C84U | 0.2
69 | U46A U119A | 1.42
70 | U46C G106U | 0.84
71 | U46C G106A | 1.22
72 | U46G U96C | 0.74

Row | Variant | self-cleavage
73 | U46C G74A | 0.52
74 | U46A A136U | 1.18
75 | U46C A136G | 1.21
76 | U46C C120U | 1.57
77 | U46C C120A | 0.85
78 | U46C G125C | 1.44
79 | U46C U85A | 0.14
80 | U46G G60C | 0
81 | U46A U52A | 1.87
82 | U46A U132A | 1.09
83 | U45G U130C | 2.36
84 | U46C A78G | 1.62
85 | U46C A78C | 1.9
86 | U46C U96A | 0.08
87 | U46C U96C | 0.3
88 | U46A A77U | 1.24
89 | U46C A92G | 0.29
90 | U46G A117U | 2.76
91 | U45G | 1.18
92 | U46C U87G | 0.55
93 | U46C A67C | 0.05
94 | U45G A78G | 1.13
95 | U46A G54A | 0.37
96 | U46G A67G | 0.32

Row | Variant | self-cleavage
97 | U46C G114U | 1.12
98 | U46C G114A | 1.22
99 | U45G U87C | 0.25
100 | U46G C103A | 1.25
101 | U46G G114A | 1.18
102 | U45G A59G | 0
103 | U46A A50G | 0.87
104 | U46C G93U | 0.06
105 | U45G G83A | 0.54
106 | U46G G89A | 0.04
107 | U46C A57U | 0.17
108 | U46C A64U | 0.55
109 | U46C U132A | 2.44
110 | U46C U132C | 1.61
111 | U46C U132G | 1.91
112 | U46G | 1.25
113 | U46A | 1.17
114 | U46C | 1.41
115 | U45G A107U | 1.05
116 | U46A U130C | 1.88
117 | U45G A64G | 0.24
118 | U46A U100C | 1.75
119 | U46C C95U | 0.23
120 | U46C U62C | 0.02

Row | Variant | self-cleavage
121 | U45G A57G | 0.9
122 | U46C A117U | 1.78
123 | U46C A117G | 1.78
124 | U46C A94C | 0.1
125 | U46C A50G | 1.59
126 | U46C A138U | 1.65
127 | U45G U85G | 0.28
128 | U46C A140G | 1.41
129 | U46C A140U | 1.46
130 | U45G A117G | 0
131 | U46A U102C | 1.28
132 | U46C A129G | 2.35
133 | U46C A129U | 1.27
134 | U46C G144A | 2.24
135 | U46C C103A | 1.58
136 | U46C G97A | 0.23
137 | U45G C113U | 0.88
138 | U45G U47C | 1.92
139 | U46A U134G | 0.84
140 | U46A U134A | 0.77
141 | U46C G53A | 1.54
142 | U46G U87C | 0
143 | U45G U102A | 1.73
144 | U45G G88U | 0.06

Row | Variant | self-cleavage
145 | U46A A129G | 1.16
146 | U46C C56U | 0.5
147 | U46C C133U | 1.13
148 | U46C C113U | 1.53
149 | U46A A65G | 0.02
150 | U46C U47G | 1.53
151 | U46A C51U | 1.35
152 | U46A A78U | 2.19
153 | U46A A78G | 0.69
154 | U46A U112C | 1.28
155 | U46A U112A | 1.37
156 | U46G A79G | 1.23
157 | U46C G49A | 1.4
158 | U46G A136G | 1.96
159 | U46G A136U | 1.34
160 | U45G A92U | 0.61
161 | U45G U81A | 1.82
162 | U46A U96A | 0.05
163 | U46C U104A | 1.11
164 | U46C U143G | 1.41
165 | U46C U143C | 1.52
166 | U46C U143A | 1.44
167 | U46A G58A | 0.04
